Measurements from article PMC10117725, “From an Hsp90 - binding protein to a peptide drug” (microLife, 2022).

Biological target: T1, Hsp90α (Homo sapiens, UniProt P07900)
T1 construct: purchased Abcam
Format: binding
Conditions: dot blot, 2 µg blotted on membrane, 20 µg recombinant Hsp90α at 4°C overnight, α-Hsp90α immunodetection
Protocol: Two µg of each peptide was blotted (dot blot) directly on PDV nitrocellulose membrane and blocked with ROTI®Block (Carl Roth, Germany). After washing, the membrane was then incubated with 20 μg of recombinant Hsp90α (Abcam)/Lpl1-his protein at 4°C overnight. In case of interaction studies with Hsp90α, α-Hsp90α (produced in mouse, Abcam) was used as the primary antibody and for interaction studies with Lpl1-his, Anti-6X His tag antibody (also produced in mouse, Sigma-Aldrich, Germany) was used. Alkaline phosphatase conjugated goat-α-mouse IgG (Sigma-Aldrich, Germany) served as the secondary antibody. Detection was done using BCIP®/NBT solution (Sigma, Germany). Lpl1-his was isolated and purified as described in our previous paper (Tribelli et al. [2020]).

B1: Lpl1: model Lpl lipoprotein of S. aureus, parent protein of the peptides (protein)
chain: CGKGNETKEDSKEEQIKKSFAITLDMYPIKNLEDLYDKEGYRDSEFKKGDKGMWTIYTDFAKSNKPGELDDEGMVLNLDRNTRTAKGHYFVTTFYRNGKLPDEKNYKIEMKNNKIILLDEVKDDKLKQKIENFKFFGQYANLKELRKYNNGDVSINENVPSYDVEYKMSNKDEIVKELRSRYNISTEKSPILKMHIDGDLKGSSVGYRKLEIDFSKRENSKLSVIEFLSYKPAKK
modifications: left off: His tag, end not stated, kept
notes: model Lpl lipoprotein of S. aureus, parent protein of the peptides
  Interaction with Hsp90α: Yes
